US20130330346A1 (Novartis, published 2013)

Tests used:
Human CXCR2 [1] = target: T1, Human CXCR2 (human, UniProt P25025 1-360); assay: cell-based or functional assay
T1 sequence: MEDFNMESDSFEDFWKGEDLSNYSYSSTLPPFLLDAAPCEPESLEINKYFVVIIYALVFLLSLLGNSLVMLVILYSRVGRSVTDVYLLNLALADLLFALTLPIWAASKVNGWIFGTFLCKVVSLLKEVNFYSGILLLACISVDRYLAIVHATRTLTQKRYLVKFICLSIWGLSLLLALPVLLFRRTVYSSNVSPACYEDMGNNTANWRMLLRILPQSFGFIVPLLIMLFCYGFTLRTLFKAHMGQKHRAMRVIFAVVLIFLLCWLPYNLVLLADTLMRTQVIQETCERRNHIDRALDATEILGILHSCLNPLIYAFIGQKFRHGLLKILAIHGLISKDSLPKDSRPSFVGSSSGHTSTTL

Cynomolgus CXCR2 [2] = target: T2, Cynomolgus CXCR2 (cynomolgus, UniProt Q28519 3-353 (rhesus entry)); assay: cell-based or functional assay
T2 chain: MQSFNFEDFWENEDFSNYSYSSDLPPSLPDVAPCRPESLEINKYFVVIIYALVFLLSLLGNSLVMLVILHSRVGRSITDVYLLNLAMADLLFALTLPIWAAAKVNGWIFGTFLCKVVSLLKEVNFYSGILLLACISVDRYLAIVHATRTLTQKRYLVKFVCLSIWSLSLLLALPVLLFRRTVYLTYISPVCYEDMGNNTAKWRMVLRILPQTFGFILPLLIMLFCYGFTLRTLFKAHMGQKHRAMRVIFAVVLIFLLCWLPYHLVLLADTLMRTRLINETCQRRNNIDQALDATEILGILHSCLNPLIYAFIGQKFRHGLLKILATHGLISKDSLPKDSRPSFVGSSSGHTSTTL

Human CXCR2 [3] = target: T1, Human CXCR2; assay: cell-based or functional assay; remark: listed apart in the source
Cynomolgus CXCR2 [4] = target: T2, Cynomolgus CXCR2; assay: FACS competition vs 3 nM FMAT-Blue Gro-α
Experimental: (§1) Multivalent anti-CXCR2Nanobodies were titrated against 3 nM FMAT-Blue-labeled Gro-α in the FACS ligand competition assay on human and cynomolgus CXCR2 (Table 14). On human CXCR2, blocking potencies range between double digit nM and sub-nM whereas on cynomolgus CXCR2, they range between single and double digit nM.

Human CXCR2 [5] = target: T1, Human CXCR2; assay: FACS competition vs 3 nM FMAT-Blue Gro-α
Experimental: as §1

Row | Binder | [35S]GTPγS % inhibition of max (GRO-α) (Human CXCR2 [1]) [%] | [35S]GTPγS IC50 (GRO-α) (Human CXCR2 [1]) [nM] | FLIPR % inhibition of max (Cynomolgus CXCR2 [2]) [%] | FLIPR IC50 (GRO-α induced calcium release) (Cynomolgus CXCR2 [2]) [nM] | FLIPR % inhibition of max (Human CXCR2 [3]) [%] | FLIPR IC50 (GRO-α induced calcium release) (Human CXCR2 [3]) [nM] | % inhibition of max (Cynomolgus CXCR2 [4]) [%] | IC50 (Cynomolgus CXCR2 [4]) [nM] | % inhibition of max (Human CXCR2 [5]) [%] | IC50 (Human CXCR2 [5]) [nM] | [35S]GTPγS % inhibition of max (ENA-78) (Human CXCR2 [1]) [%] | [35S]GTPγS % inhibition of max (IL-8) (Human CXCR2 [1]) [%] | [35S]GTPγS IC50 (ENA-78) (Human CXCR2 [1]) [nM] | [35S]GTPγS IC50 (IL-8) (Human CXCR2 [1]) [nM]
1 | CXCR20024 (VHH, Bivalent: two VHH joined by a GlySer linker; also called 163E3-35GS-163E3; not shown: C-terminal c-myc tag and His6 tag coded by pAX100) EVQLVESGGGLVQPGGSLRLSCVASGRIFSSNAMGWFRQAPGKEREFVAAITWRSGGSAYYADSAKGRFTISRDNAKNTVYLQMNSLKPEDTAVYYCAAGGSSWLSFPPDYWGQGTQVTVSSGGGGSGGGGSGGGGSGGGGSGGGGSGGGGSGGGGSEVQLVESGGGLVQPGGSLRLSCVASGRIFSSNAMGWFRQAPGKEREFVAAITWRSGGSAYYADSAKGRFTISRDNAKNTVYLQMNSLKPEDTAVYYCAAGGSSWLSFPPDYWGQGTQVTVSS | 100 | 30.3 | 100 | 11.8 | 100 | 26.4 | 95 | 5.32 | 99 | 5.27 |  |  |  | 
2 | CXCR20023 (bispecific antibody, Two different VHH joined by a GlySer linker; also called 163D2-35GS-163E3; not shown: C-terminal c-myc tag and His6 tag coded by pAX100) EVQLVESGGGLVQAGGSLRLSCAASGRTFSDYAMGWFRQAPGKEREFVAAITWNGGRVFYTASVKGRFTISRDNAKNTMYLQMNSLKPEDTAVYYCAADKDRRTDYLGHPVAYWGQGTQVTVSSGGGGSGGGGSGGGGSGGGGSGGGGSGGGGSGGGGSEVQLVESGGGLVQPGGSLRLSCVASGRIFSSNAMGWFRQAPGKEREFVAAITWRSGGSAYYADSAKGRFTISRDNAKNTVYLQMNSLKPEDTAVYYCAAGGSSWLSFPPDYWGQGTQVTVSS | 100 | 26.6 | 100 | 12 | 100 | 14.8 | 96 | 6.61 | 99 | 4.28 |  |  |  | 
3 | CXCR20017 (other, Two different VHH joined by a GlySer linker; also called 97A9-35GS-137B7; not shown: C-terminal c-myc tag and His6 tag coded by pAX100) EVQLVESGGGLVQPGGSLRLSCVASGSIVRINTMGWYRQTPGKQRELVADITSGGNINYIDAVKGRFTISRDNTKNTVYLQMNSLKPEDTAVYYCNAEIVVLVGVWTQRARTGNYWGQGTQVTVSSGGGGSGGGGSGGGGSGGGGSGGGGSGGGGSGGGGSEVQLVESGGGLVQPGGSVRLSCVASGIIFRLSALGWTRQGPGKAREWVAGINSDGTTNYADPVKGRFTISRDNAKNTIYLHMDMLKPEDTAVYYCASGKYRGQGTQVTVSS |  |  | 100 | 1080 | 100 | 22.9 | 73 | 29.5 | 99 | 3.4 |  |  |  | 
4 | CXCR20031 (bispecific antibody, Biparatopic: two VHH joined by a GlySer linker; also called 2B2-35GS-163E3; not shown: C-terminal c-myc tag and His6 tag coded by pAX100) EVQLVESGGELVQPGGSLRLSCAASGSILTINAMGWYRQAPGKQRELVVRRTRGGSTTYQDSVKGRFTISADIAKKTMYLQMNSLKPEDTAVYYCMLDDRGGVYWGQGTQVTVSSGGGGSGGGGSGGGGSGGGGSGGGGSGGGGSGGGGSEVQLVESGGGLVQPGGSLRLSCVASGRIFSSNAMGWFRQAPGKEREFVAAITWRSGGSAYYADSAKGRFTISRDNAKNTVYLQMNSLKPEDTAVYYCAAGGSSWLSFPPDYWGQGTQVTVSS |  |  | 100 | 4.26 | 100 | 15.2 | 99 | 1.98 | 100 | 0.49 | 100 | 100 | 1.38 | 0.84
5 | CXCR20032 (bispecific antibody, Biparatopic: two VHH joined by a GlySer linker; also called 2B2-35GS-163D2; not shown: C-terminal c-myc tag and His6 tag coded by pAX100) EVQLVESGGELVQPGGSLRLSCAASGSILTINAMGWYRQAPGKQRELVVRRTRGGSTTYQDSVKGRFTISADIAKKTMYLQMNSLKPEDTAVYYCMLDDRGGVYWGQGTQVTVSSGGGGSGGGGSGGGGSGGGGSGGGGSGGGGSGGGGSEVQLVESGGGLVQAGGSLRLSCAASGRTFSDYAMGWFRQAPGKEREFVAAITWNGGRVFYTASVKGRFTISRDNAKNTMYLQMNSLKPEDTAVYYCAADKDRRTDYLGHPVAYWGQGTQVTVSS |  |  | 100 | 3.65 | 100 | 14.7 | 99 | 1.91 | 100 | 0.5 | 100 | 100 | 0.116 | 0.997
6 | CXCR20025 (bispecific antibody, Biparatopic: two VHH joined by a GlySer linker; also called 163D2-35GS-127D1; not shown: C-terminal c-myc tag and His6 tag coded by pAX100) EVQLVESGGGLVQAGGSLRLSCAASGRTFSDYAMGWFRQAPGKEREFVAAITWNGGRVFYTASVKGRFTISRDNAKNTMYLQMNSLKPEDTAVYYCAADKDRRTDYLGHPVAYWGQGTQVTVSSGGGGSGGGGSGGGGSGGGGSGGGGSGGGGSGGGGSEVQLVESGGGLVQAGESLRLSCAASGSTFDFKVMGWYRQPPGKQREGVAAIRLSGNMHYAESVKGRFTISKANAKNTVYLQMNSLRPEDTAVYYCKVNIRGQDYWGQGTQVTVSS | 100 | 0.891 | 100 | 7.88 | 100 | 12.2 | 98.5 | 2.08 | 99 | 0.9 |  |  |  | 
7 | CXCR20021 (bispecific antibody, Biparatopic: two VHH joined by a GlySer linker; also called 127D1-35GS-163E3; 127D1-163E3; not shown: C-terminal c-myc tag and His6 tag coded by pAX100) EVQLVESGGGLVQAGESLRLSCAASGSTFDFKVMGWYRQPPGKQREGVAAIRLSGNMHYAESVKGRFTISKANAKNTVYLQMNSLRPEDTAVYYCKVNIRGQDYWGQGTQVTVSSGGGGSGGGGSGGGGSGGGGSGGGGSGGGGSGGGGSEVQLVESGGGLVQPGGSLRLSCVASGRIFSSNAMGWFRQAPGKEREFVAAITWRSGGSAYYADSAKGRFTISRDNAKNTVYLQMNSLKPEDTAVYYCAAGGSSWLSFPPDYWGQGTQVTVSS | 100 | 0.551 | 100 | 2.31 | 100 | 7.32 | 98.5 | 1.85 | 99.5 | 1.09 | 100 | 100 | 0.787 | 0.827
8 | CXCR20022 (VHH, Bivalent: two VHH joined by a GlySer linker; also called 163D2-35GS-163D2; not shown: C-terminal c-myc tag and His6 tag coded by pAX100) EVQLVESGGGLVQAGGSLRLSCAASGRTFSDYAMGWFRQAPGKEREFVAAITWNGGRVFYTASVKGRFTISRDNAKNTMYLQMNSLKPEDTAVYYCAADKDRRTDYLGHPVAYWGQGTQVTVSSGGGGSGGGGSGGGGSGGGGSGGGGSGGGGSGGGGSEVQLVESGGGLVQAGGSLRLSCAASGRTFSDYAMGWFRQAPGKEREFVAAITWNGGRVFYTASVKGRFTISRDNAKNTMYLQMNSLKPEDTAVYYCAADKDRRTDYLGHPVAYWGQGTQVTVSS | 100 | 28.5 | 100 | 8.64 | 100 | 9.34 | 98 | 8.01 | 100 | 4.14 |  |  |  | 
